Test results published in US20240226163A1 (Regeneron, published 2024).
Blank lines part the entries; values can stand above or below the binder they belong to.

Legend:
[1] = molecular target: HLA-A*02:01 presenting MAGE-A4 286-294 peptide (…) (human); test: cell-based or functional assay
[2] = molecular target: HLA-A*02:01 presenting MAGE-A4 286-294 peptide (…) (human); test: cell-based or functional assay; remark: listed apart in the source
[3] = molecular target: HLA-A*02:01 presenting MAGE-A4 286-294 peptide (…) (human); test: cell-based or functional assay; remark: listed apart in the source
[4] = molecular target: HLA-A*02:01 presenting FN1 2182-2190 peptide (…) (human); test: cell-based or functional assay
[5] = molecular target: HLA-A*02:01 presenting AOX1 795-803 peptide (…) (human); test: cell-based or functional assay
[6] = molecular target: HLA-A*02:01 presenting PSME2 145-153 peptide (…) (human); test: cell-based or functional assay
[7] = molecular target: HLA-A*02:01 presenting PCDHGC3 337-345 peptide (…) (human); test: cell-based or functional assay
[8] = molecular target: HLA-A*02:01 presenting SHTN1 198-206 peptide (…) (human); test: cell-based or functional assay
[9] = molecular target: HLA-A*02:01 presenting SMIM11A 4-12 peptide (…) (human); test: cell-based or functional assay
[10] = molecular target: HLA-A*02:01 presenting RABGAP1L 408-416 peptide (…) (human); test: cell-based or functional assay
[11] = molecular target: HLA-A*02:01 presenting CNOT1 1965-1973 peptide (…) (human); test: cell-based or functional assay
[12] = molecular target: HLA-A*02:01 presenting CARD8 170-178 peptide (…) (human); test: cell-based or functional assay
[13] = molecular target: HLA-A*02:01 presenting MRPL37 334-342 peptide (…) (human); test: cell-based or functional assay
[14] = molecular target: HLA-A*02:01 presenting PLEKHH2 790-798 peptide (…) (human); test: cell-based or functional assay
[15] = molecular target: HLA-A*02:01 presenting NBAS 2063-2071 peptide (…) (human); test: cell-based or functional assay
[16] = molecular target: HLA-A*02:01 presenting TEP1 2156-2164 peptide (…) (human); test: cell-based or functional assay
[17] = molecular target: T1, HLA-A*02:01 presenting HEATR5A 1925-1933 peptide (…) (human); test: cell-based or functional assay
[18] = molecular target: T2, HLA-A*02:01 presenting FN1 2182-2190 peptide (…) (human); test: flow cytometry, peptide-pulsed T2 cells;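 on S/N ratio: ratio of peak mean fluorescence intensity across a 12-point threefold antibody dilution series to the MFI with secondary antibody only, live-gated cells by flow cytometry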
T2 construct: On peptide-pulsed T2 cells; also called T2 Pulsed FN1 2182-2190

[19] = molecular target: T3, HLA-A*02:01 presenting PSME2 145-153 peptide (…) (human); test: flow cytometry, peptide-pulsed T2 cells;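 on S/N ratio: ratio of peak mean fluorescence intensity across a 12-point threefold antibody dilution series to the MFI with secondary antibody only, live-gated cells by flow cytometry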
T3 construct: On peptide-pulsed T2 cells; also called T2 Pulsed PSME2 145-153

[20] = molecular target: T4, HLA-A*02:01 presenting PCDHGC3 337-345 peptide (…) (human); test: flow cytometry, peptide-pulsed T2 cells;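 on S/N ratio: ratio of peak mean fluorescence intensity across a 12-point threefold antibody dilution series to the MFI with secondary antibody only, live-gated cells by flow cytometry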
T4 construct: On peptide-pulsed T2 cells; also called T2 Pulsed PCDHGC3 337-345

[21] = molecular target: T5, HLA-A*02:01 presenting SMIM11A 4-12 peptide (…) (human); test: flow cytometry, peptide-pulsed T2 cells;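 on S/N ratio: ratio of peak mean fluorescence intensity across a 12-point threefold antibody dilution series to the MFI with secondary antibody only, live-gated cells by flow cytometry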
T5 construct: On peptide-pulsed T2 cells; also called T2 Pulsed SMIM11A 4-12

[22] = molecular target: T6, HLA-A*02:01 presenting RABGAP1L 408-416 peptide (…) (human); test: flow cytometry, peptide-pulsed T2 cells
T6 construct: On peptide-pulsed T2 cells; also called T2 Pulsed RABGAP1L 408-416

[23] = molecular target: T7, HLA-A*02:01 presenting CNOT1 1965-1973 peptide (…) (human); test: flow cytometry, peptide-pulsed T2 cells
T7 construct: On peptide-pulsed T2 cells; also called T2 Pulsed CNOT1 1965-1973

[24] = molecular target: T8, HLA-A*02:01 presenting CARD8 170-178 peptide (…) (human); test: flow cytometry, peptide-pulsed T2 cells
T8 construct: On peptide-pulsed T2 cells; also called T2 Pulsed CARD8 170-178

[25] = molecular target: T9, HLA-A*02:01 presenting MRPL37 334-342 peptide (…) (human); test: flow cytometry, peptide-pulsed T2 cells
T9 construct: On peptide-pulsed T2 cells; also called T2 Pulsed MRPL37 334-342

[26] = molecular target: T10, HLA-A*02:01 presenting PLEKHH2 790-798 peptide (…) (human); test: flow cytometry, peptide-pulsed T2 cells
T10 construct: On peptide-pulsed T2 cells; also called T2 Pulsed PLEKHH2 790-798

[27] = molecular target: T11, HLA-A*02:01 presenting NBAS 2063-2071 peptide (…) (human); test: flow cytometry, peptide-pulsed T2 cells
T11 construct: On peptide-pulsed T2 cells; also called T2 Pulsed NBAS 2063-2071

[28] = molecular target: T12, HLA-A*02:01 presenting TEP1 2156-2164 peptide (…) (human); test: flow cytometry, peptide-pulsed T2 cells
T12 construct: On peptide-pulsed T2 cells; also called T2 Pulsed TEP1 2156-2164

[29] = molecular target: T1, HLA-A*02:01 presenting HEATR5A …; test: flow cytometry, peptide-pulsed T2 cells
[30] = molecular target: T13, HLA-A*02:01 presenting MAGE-A4 286-294 peptide (…) (human); test: flow cytometry, peptide-pulsed T2 cells
T13 construct: On peptide-pulsed T2 cells
Procedure: (§1) Samples were run on an Intellicyt iQue flow cytometer (Intellicyt) and results were analyzed using Forecyte analysis software (Intellicyte) to calculate the mean fluorescent intensity (MFI) after gating for live cells. MFI values were plotted in Graphpad Prism using a four-parameter logistic equation over a 12-point response curve to calculate EC₅₀ values. The secondary antibody alone (i.e. no primary antibody) for each dose-response curve is also included in the analysis as a continuation of the three-fold serial dilution and is represented as the lowest dose. The signal to noise (S/N) was determined by taking the ratio of the highest MFI on the dose response curve to the MFI in the secondary alone wells.

[31] = molecular target: T2, HLA-A*02:01 presenting FN1 2182-2190 …; test: flow cytometry, peptide-pulsed T2 cells; remark: listed apart in the source
Procedure: as §1

[32] = molecular target: T14, HLA-A*02:01 presenting AOX1 795-803 peptide (…) (human); test: flow cytometry, peptide-pulsed T2 cells
T14 construct: On peptide-pulsed T2 cells; also called T2 Pulsed AOX1 795-803
Procedure: as §1

[33] = molecular target: T3, HLA-A*02:01 presenting PSME2 145-153 …; test: flow cytometry, peptide-pulsed T2 cells; remark: listed apart in the source
Procedure: as §1

[34] = molecular target: T4, HLA-A*02:01 presenting PCDHGC3 337-345 …; test: flow cytometry, peptide-pulsed T2 cells; remark: listed apart in the source
Procedure: as §1

[35] = molecular target: T15, HLA-A*02:01 presenting SHTN1 198-206 peptide (…) (human); test: flow cytometry, peptide-pulsed T2 cells
T15 construct: On peptide-pulsed T2 cells; also called T2 Pulsed SHTN1 198-206
Procedure: as §1

[36] = molecular target: T5, HLA-A*02:01 presenting SMIM11A 4-12 …; test: flow cytometry, peptide-pulsed T2 cells; remark: listed apart in the source
Procedure: as §1

[37] = molecular target: T6, HLA-A*02:01 presenting RABGAP1L 408-416 …; test: flow cytometry, peptide-pulsed T2 cells; remark: listed apart in the source
Procedure: as §1

[38] = molecular target: T7, HLA-A*02:01 presenting CNOT1 1965-1973 …; test: flow cytometry, peptide-pulsed T2 cells; remark: listed apart in the source
Procedure: as §1

[39] = molecular target: T8, HLA-A*02:01 presenting CARD8 170-178 …; test: flow cytometry, peptide-pulsed T2 cells; remark: listed apart in the source
Procedure: as §1

[40] = molecular target: T9, HLA-A*02:01 presenting MRPL37 334-342 …; test: flow cytometry, peptide-pulsed T2 cells; remark: listed apart in the source
Procedure: as §1

[41] = molecular target: T10, HLA-A*02:01 presenting PLEKHH2 790-798 …; test: flow cytometry, peptide-pulsed T2 cells; remark: listed apart in the source
Procedure: as §1

[42] = molecular target: T11, HLA-A*02:01 presenting NBAS 2063-2071 …; test: flow cytometry, peptide-pulsed T2 cells; remark: listed apart in the source
Procedure: as §1

[43] = molecular target: T12, HLA-A*02:01 presenting TEP1 2156-2164 …; test: flow cytometry, peptide-pulsed T2 cells; remark: listed apart in the source
Procedure: as §1

[44] = molecular target: T1, HLA-A*02:01 presenting HEATR5A …; test: flow cytometry, peptide-pulsed T2 cells; remark: listed apart in the source
Procedure: as §1

[45] = molecular target: T13, HLA-A*02:01 presenting MAGE-A4 286-294 …; test: flow cytometry, peptide-pulsed T2 cells; remark: listed apart in the source
Procedure: as §1

EC50, NF-κB luciferase, Jurkat/NF-κB Luc + IM-9 [1]: 0.74 nM
EC50, NF-κB luciferase, Jurkat/NF-κB Luc + U266 [1]: 3.1 nM
Fold Activation, NF-κB luciferase, Jurkat/NF-κB Luc + IM-9 [1]: 41.9 fold
Fold Activation, NF-κB luciferase, Jurkat/NF-κB Luc + U266 [1]: 6.3 fold
EC50, NF-κB luciferase, Jurkat + IM-9, with 2 nM mAb5705 (anti-CD28) [2]: 2.1 nM
EC50, NF-κB luciferase, Jurkat + U266, with 2 nM mAb5705 (anti-CD28) [2]: 6.1 nM
Fold Activation, NF-κB luciferase, Jurkat + IM-9, with 2 nM mAb5705 (anti-CD28) [2]: 28.7 fold
Fold Activation, NF-κB luciferase, Jurkat + U266, with 2 nM mAb5705 (anti-CD28) [2]: 8.6 fold
EC50 (M), Jurkat/NF-κB-Luc reporter with pulsed T2 cells [3]: 2e-12 M
Fold change, Jurkat/NF-κB-Luc reporter with pulsed T2 cells [3]: 78.7 fold
EC50 (M), Jurkat/NF-κB-Luc reporter with pulsed T2 cells [4]: > 2e-08 M
Fold change, Jurkat/NF-κB-Luc reporter with pulsed T2 cells [4]: 1 fold
EC50 (M), Jurkat/NF-κB-Luc reporter with pulsed T2 cells [5]: 2.1e-11 M
Fold change, Jurkat/NF-κB-Luc reporter with pulsed T2 cells [5]: 36 fold
EC50 (M), Jurkat/NF-κB-Luc reporter with pulsed T2 cells [6]: > 2e-08 M
Fold change, Jurkat/NF-κB-Luc reporter with pulsed T2 cells [6]: 1 fold
EC50 (M), Jurkat/NF-κB-Luc reporter with pulsed T2 cells [7]: > 2e-08 M
Fold change, Jurkat/NF-κB-Luc reporter with pulsed T2 cells [7]: 1 fold
EC50 (M), Jurkat/NF-κB-Luc reporter with pulsed T2 cells [8]: 1.3e-09 M
Fold change, Jurkat/NF-κB-Luc reporter with pulsed T2 cells [8]: 81.1 fold
EC50 (M), Jurkat/NF-κB-Luc reporter with pulsed T2 cells [9]: > 2e-08 M
Fold change, Jurkat/NF-κB-Luc reporter with pulsed T2 cells [9]: 1 fold
EC50 (M), Jurkat/NF-κB-Luc reporter with pulsed T2 cells [10]: > 2e-08 M
Fold change, Jurkat/NF-κB-Luc reporter with pulsed T2 cells [10]: 1 fold
EC50 (M), Jurkat/NF-κB-Luc reporter with pulsed T2 cells [11]: > 2e-08 M
Fold change, Jurkat/NF-κB-Luc reporter with pulsed T2 cells [11]: 1 fold
EC50 (M), Jurkat/NF-κB-Luc reporter with pulsed T2 cells [12]: > 2e-08 M
Fold change, Jurkat/NF-κB-Luc reporter with pulsed T2 cells [12]: 1.2 fold
EC50 (M), Jurkat/NF-κB-Luc reporter with pulsed T2 cells [13]: > 2e-08 M
Fold change, Jurkat/NF-κB-Luc reporter with pulsed T2 cells [13]: 2.4 fold
EC50 (M), Jurkat/NF-κB-Luc reporter with pulsed T2 cells [14]: > 2e-08 M
Fold change, Jurkat/NF-κB-Luc reporter with pulsed T2 cells [14]: 2.8 fold
EC50 (M), Jurkat/NF-κB-Luc reporter with pulsed T2 cells [15]: > 2e-08 M
Fold change, Jurkat/NF-κB-Luc reporter with pulsed T2 cells [15]: 1.3 fold
EC50 (M), Jurkat/NF-κB-Luc reporter with pulsed T2 cells [16]: > 2e-08 M
Fold change, Jurkat/NF-κB-Luc reporter with pulsed T2 cells [16]: 1.2 fold
EC50 (M), Jurkat/NF-κB-Luc reporter with pulsed T2 cells [17]: > 2e-08 M
Fold change, Jurkat/NF-κB-Luc reporter with pulsed T2 cells [17]: 1.2 fold
B1: bsAb6054 (bispecific antibody, V domains shown)
VH 1: QVQLVESGGGLVKPGGSLRLSCAASGFTFSEYYLTWIRQAPGKGLDWIAYISSSGYNIYYADSVKDRFTISRDNGKNSLFLQMNNLRAEDTAVYFCAREGVTDGMDVWGQGTTVTVSS
VH 2: EVQLVESGGGLVQPGRSLRLSCAASGFTFADYTMHWVRQAPGKGLEWVSDISWNSGSIAYADSVKGRFTISRDNAKNSLYLQMNSLRTEDTAFYYCAKDSRGYGHYKYLGLDVWGQGTTVTVSS
VL: DIQMTQSPSSLSASVGDRVTITCRASQSIDTFLNWYQQKPGKVPKLLIYAASNLESGVPSRFSGSGSGTVFTLTISRLQPEDFATYYCQQSYSIPPITFGQGTRVEIK

binding result [18]: no binding
binding result [19]: no binding
binding result [20]: no binding
binding result [21]: no binding
binding result [22]: no binding
binding result [23]: no binding
binding result [24]: no binding
binding result [25]: no binding
binding result [26]: no binding
binding result [27]: no binding
binding result [28]: no binding
binding result [29]: no binding
S/N ratio [30]: 310
S/N ratio [31]: 1
S/N ratio [32]: 131
S/N ratio [33]: 1
S/N ratio [34]: 1
S/N ratio [35]: 5
S/N ratio [36]: 1
S/N ratio [37]: 1
S/N ratio [38]: 1
S/N ratio [39]: 1
S/N ratio [40]: 1
S/N ratio [41]: 1
S/N ratio [42]: 1
S/N ratio [43]: 1
S/N ratio [44]: 1
B2: mAbH31339N2 (antibody, human IgG4 S228P, kappa, V domains shown)
VH: QVQLVESGGGLVKPGGSLRLSCAASGFTFSEYYLTWIRQAPGKGLDWIAYISSSGYNIYYADSVKDRFTISRDNGKNSLFLQMNNLRAEDTAVYFCAREGVTDGMDVWGQGTTVTVSS
VL: DIQMTQSPSSLSASVGDRVTITCRASQSIDTFLNWYQQKPGKVPKLLIYAASNLESGVPSRFSGSGSGTVFTLTISRLQPEDFATYYCQQSYSIPPITFGQGTRVEIKR
notes: Fully human form (human constant region); also called parent antibody

EC50 [45]: 1.7 nM
B3: mAbM31339N (antibody, V domains shown)
VH: QVQLVESGGGLVKPGGSLRLSCAASGFTFSEYYLTWIRQAPGKGLDWIAYISSSGYNIYYADSVKDRFTISRDNGNNSLFLQMNNLRAEDTAVYFCAREGVTDGMDVWGQGTTVTVSS
VL: DIQMTQSPSSLSASVGDRVTITCRASQSIDTFLNWYQQKPGKVPKLLIYAASNLESGVPSRFSGSGSGTVFTLTISRLQPEDFATYYCQQSYSIPPITFGQGTRVEIK
notes: Human variable regions with a mouse constant region (detected with anti-mouse Fc secondary; its isotype control is mIgG2a); also called mAb31339N
